Measured values taken from patent US20230265151A1, “GIP/GLP1 CO-AGONIST COMPOUNDS” (priority 2020, published 2023).

Legend:
Test in all cases: cell-based or functional assay
human glucagon receptor = human glucagon receptor (human, UniProt P47871 26-477)
human GIP receptor = target: T1, human GIP receptor (human, UniProt P48546 22-466)
T1 sequence (looked up): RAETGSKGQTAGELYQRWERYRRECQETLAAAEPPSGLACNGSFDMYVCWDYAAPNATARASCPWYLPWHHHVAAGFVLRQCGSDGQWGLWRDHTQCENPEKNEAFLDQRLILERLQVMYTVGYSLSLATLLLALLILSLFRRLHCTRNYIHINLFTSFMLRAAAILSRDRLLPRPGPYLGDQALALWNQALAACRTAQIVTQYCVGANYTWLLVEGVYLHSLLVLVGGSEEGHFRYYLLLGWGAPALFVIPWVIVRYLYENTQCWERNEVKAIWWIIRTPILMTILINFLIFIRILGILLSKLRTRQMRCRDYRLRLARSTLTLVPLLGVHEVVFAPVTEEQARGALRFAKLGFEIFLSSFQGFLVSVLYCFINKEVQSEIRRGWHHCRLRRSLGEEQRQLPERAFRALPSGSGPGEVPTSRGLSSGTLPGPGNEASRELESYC

human GLP-1 receptor = human GLP-1 receptor (human, UniProt P43220 24-463)

| Binder | EC50, cAMP (human glucagon receptor) [nM] | EC50, cAMP (human GIP receptor) [nM] | Emax, cAMP (human GIP receptor) [%] | EC50, cAMP (human GLP-1 receptor) [nM] | Emax, cAMP (human GLP-1 receptor) [%] |
| --- | --- | --- | --- | --- | --- |
| YXEGTXTSDXSIXLDXKAQXEFIXXLIEGGPSSGAPPPSK (Aib2, αMeF(2F)6, 4Pal10, αMeL13, Orn16, Aib20, D-Glu24, αMeY25, K17 and K40: K(AEEA2-(γ-Glu)-CO-(CH2)12-CO2H), C-terminal NH2) [Example 19] | > 9950 | 0.0158 | 96.6 | 1.34 | – |
| YXEGTXTSDXSIXLDXIAQXEFIXXLIKGGKSSGAPPPS (Aib2, αMeF(2F)6, 4Pal10, αMeL13, Orn16, Aib20, D-Glu24, αMeY25, K28 and K31: K(AEEA2-(γ-Glu)-CO-(CH2)12-CO2H), C-terminal NH2) [Example 20] | > 9950 | 0.00985 | 98.8 | 0.552 | – |
| YXEGTXTSDXSIXLDXKAQXKFIXXLIEGGPSSGAPPPS (Aib2, αMeF(2F)6, 4Pal10, αMeL13, Orn16, Aib20, D-Glu24, αMeY25, K17 and K21: K(AEEA2-(γ-Glu)-CO-(CH2)14-CH3), C-terminal NH2) [Example 21] | > 9950 | 0.00347 | – | 0.00655 | – |
| YXEGTXTSDXSIXLDXKAQXEFIXXLIEGGKSSGAPPPS (Aib2, αMeF(2F)6, 4Pal10, αMeL13, Orn16, Aib20, D-Glu24, αMeY25, K17 and K31: K(AEEA2-(γ-Glu)-CO-(CH2)12-CO2H), C-terminal NH2) [Example 1] | > 9950 | 0.0145 | 90.2 | 0.925 | – |
| YXEGTXTSDXSIXLDXKAQXEFIKXLIEGGPSSGAPPPS (Aib2, αMeF(2F)6, 4Pal10, αMeL13, Orn16, Aib20, αMeY25, K17 and K24: K(AEEA2-(γ-Glu)-CO-(CH2)14-CH3), C-terminal NH2) [Example 22] | > 9950 | 0.00656 | – | 0.0153 | – |
| YXEGTXTSDXSIXLDXKAQXEFIXXLIKGGPSSGAPPPS (Aib2, αMeF(2F)6, 4Pal10, αMeL13, Orn16, Aib20, D-Glu24, αMeY25, K17 and K28: K(AEEA2-(γ-Glu)-CO-(CH2)14-CH3), C-terminal NH2) [Example 23] | > 9950 | 0.00299 | – | 0.00722 | – |
| YXEGTXTSDXSIXLDXKAQXEFIXXLIEGGKSSGAPPPS (Aib2, αMeF(2F)6, 4Pal10, αMeL13, Orn16, Aib20, D-Glu24, αMeY25, K17 and K31: K(AEEA2-(γ-Glu)-CO-(CH2)10-CO2H), C-terminal NH2) [Example 6] | > 9950 | 0.0477 | – | 2.3 | – |
| YXEGTXTSDXSIXLDXKAQXEFIXXLIEGKPSSGAPPPS (Aib2, αMeF(2F)6, 4Pal10, αMeL13, Orn16, Aib20, D-Glu24, αMeY25, K17 and K30: K(AEEA2-(γ-Glu)-CO-(CH2)14-CH3), C-terminal NH2) [Example 24] | > 9950 | 0.00266 | – | 0.0063 | – |
| YXEGTXTSDXSIXLDXKAQXEFIXXLIEGGPSSGAPPPSK (Aib2, αMeF(2F)6, 4Pal10, αMeL13, Orn16, Aib20, D-Glu24, αMeY25, K17 and K40: K(AEEA2-(γ-Glu)-CO-(CH2)14-CH3), C-terminal NH2) [Example 25] | > 9950 | 0.00243 | – | 0.00426 | – |
| YXEGTXTSDXSIXLDXIAQXEFIXXLIKGGKSSGAPPPS (Aib2, αMeF(2F)6, 4Pal10, αMeL13, Orn16, Aib20, D-Glu24, αMeY25, K28 and K31: K(AEEA2-(γ-Glu)-CO-(CH2)14-CH3), C-terminal NH2) [Example 26] | > 9950 | 0.0218 | – | 0.0711 | – |
| YXEGTXTSDKSIXLDXKAQXEFIXXLIEGGPSSGAPPPS (Aib2, αMeF(2F)6, αMeL13, Orn16, Aib20, D-Glu24, αMeY25, K10 and K17: K(AEEA2-(γ-Glu)-CO-(CH2)12-CO2H), C-terminal NH2) [Example 27] | > 9950 | 0.116 | 88.8 | 2.77 | – |
| YXEGTXTSDXSKXLDXKAQXEFIXXLIEGGPSSGAPPPS (Aib2, αMeF(2F)6, 4Pal10, αMeL13, Orn16, Aib20, D-Glu24, αMeY25, K12 and K17: K(AEEA2-(γ-Glu)-CO-(CH2)12-CO2H), C-terminal NH2) [Example 28] | > 9950 | 0.0554 | 95.4 | 2.65 | – |
| YXEGTXTSDKSIXLDXKAQXEFIXXLIEGGPSSGAPPPS (Aib2, αMeF(2F)6, αMeL13, Orn16, Aib20, D-Glu24, αMeY25, K10 and K17: K(AEEA2-(γ-Glu)-CO-(CH2)14-CH3), C-terminal NH2) [Example 29] | > 9950 | 0.00252 | – | 0.00468 | 100 |
| YXEGTXTSDXSIXLDXKAQXEFIXXLIEGGKSSGAPPPS (Aib2, αMeF(2F)6, 4Pal10, αMeL13, Orn16, Aib20, D-Glu24, αMeY25, K17 and K31: K(AEEA3-(γ-Glu)-CO-(CH2)12-CO2H), C-terminal NH2) [Example 30] | > 9950 | 0.0175 | – | 2.27 | – |
| YXEGTXTSDXSIXLDXKAQXEFIXXLIEGGKSSGAPPPS (Aib2, αMeF(2F)6, 4Pal10, αMeL13, Orn16, Aib20, D-Glu24, αMeY25, K17 and K31: K(AEEA3-(γ-Glu)-CO-(CH2)14-CH3), C-terminal NH2) [Example 31] | > 9950 | 0.00157 | – | – | – |
| YXEGTXTSDXSIXLDXKAQXEFIXKLIEGGPSSGAPPPS (Aib2, αMeF(2F)6, 4Pal10, αMeL13, Orn16, Aib20, D-Glu24, K17 and K25: K(AEEA2-(γ-Glu)-CO-(CH2)14-CH3), C-terminal NH2) [Example 32] | > 9950 | 0.002 | – | 0.0063 | 119 |
| YXEGTXTSDXSIXLDXKAQXEFIXXLIEGGKSSGAPPPS (Aib2, αMeF(2F)6, 4Pal10, αMeL13, Orn16, Aib20, D-Glu24, αMeY25, K17 and K31: K(AEEA2-(εK)-CO-(CH2)12-CO2H), C-terminal NH2) [Example 33] | > 9950 | 0.00957 | – | 0.37 | – |
| YXEGTXTSDXSIXLDXKAQXEFIXXLIEGGKSSGAPPPS (Aib2, αMeF(2F)6, 4Pal10, αMeL13, Orn16, Aib20, D-Glu24, αMeY25, K17 and K31: K(AEEA2-(γ-Glu)-(10-(4-carboxyphenoxy)decanoyl)), C-terminal NH2) [Example 2] | > 9950 | 0.0154 | – | 1.14 | – |
| YXEGTXTSDXSIXLDXKAQXEFIXXLIEGGKSSGAPPPS (Aib2, αMeF(2F)6, 4Pal10, αMeL13, Orn16, Aib20, D-Glu24, αMeY25, K17 and K31: K(AEEA2-(εK)-(γ-Glu)-CO-(CH2)12-CO2H), C-terminal NH2) [Example 34] | > 9950 | 0.0148 | – | 1 | – |
